We go through one protein from FireProtDB (doi:10.1021/bi00146a008).

For this series the following is noted: Homo sapiens, pH 2.8, Thermal, DSC, glycine-HCl 50 mM, reversible: yes, whole UniProt chain shown.

B1: Lysozyme C wild type, P61626 (protein)
chain: MKALIVLGLVLLSVTVQGKVFERCELARTLKRLGMDGYRGISLANWMCLAKWESGYNTRATNYNAGDRSTDYGIFQINSRYWCNDGKTPGAVNACHLSCSALLQDNIADAVACAKRVVRDPQGIRAWVAWRNRCQNRDVRQYVQGCGV
As a reminder, the Tm is the temperature at which the thermal transition is half complete. For the protein B1, the Tm came to 68.8 °C and the “heat capacity change of unfolding” value was 1.58 kcal/mol/K. Where the note is “68.8 °C”, the “heat capacity change of unfolding” value amounted to 1.58 kcal/mol/K and the “unfolding enthalpy (calorimetric)” value was determined as 120 kcal/mol.
